Laboratory results from patent publication US20230242658A1 (published 2023).
Each block holds one binder with its values, some of them ahead of it.

Columns and labels:
[1] = target: T1, human 4-1BB on CHO-K1 cells (human, UniProt Q07011 24-255); experiment: FACS, CHO-K1/hu 4-1BB cells
T1 construct: whole, on cells; also called CHO-K1/hu 4-1BB; CHO-K1/hu4-1BB

[2] = target: T2, human PD-L1 on CHO-K1 cells (human, UniProt Q9NZQ7 19-290); experiment: FACS, CHO-K1/hPD-L1 cells
T2 construct: whole, on cells; also called CHO-K1/hPDL1; CHO-K1/hPD-L1

[3] = target: T3, histidine-labeled cynomolgus monkey 4-1BB protein (cynomolgus monkey); experiment: BLI Octet RED96, AHC sensor, his-tagged antigen
T3 construct: also called Monkey 4-1BB protein antigen (histidine-labeled); cynomolgus monkey 4-1BB protein and his tag (Acrobiosystem, #41B-052H4)
Experimental: (§1) Specifically, human 4-1BB protein and his tag (Acrobiosystem, #41B-H5227), or cynomolgus monkey 4-1BB protein and his tag (Acrobiosystem, #41B-052H4), were diluted to 400 nM with PBS buffer (pH 7.4) containing 0.1% (w/w) BSA and 0.02% (v/v) Tween 20, and incubated with the AHC sensor. A 40 nM 4-1BB antibody was incubated with the AHC sensor loaded with human 4-1BB protein or monkey 4-1BB protein at 30° C. for 3 min. The reaction mixture was incubated in PBS buffer (pH 7.4) containing 0.1% (v/w) BSA and 0.02% (v/v) Tween 20 at 30° C. for another 5 min The binding and separation signals between the 4-1BB antibody and 4-1BB protein were recorded by Octet Red 96 in real time. The affinity and association and dissociation constants were determined by Octet using software.

[4] = target: T4, histidine-labeled human 4-1BB protein (human, UniProt Q07011 24-186); experiment: BLI Octet RED96, AHC sensor, his-tagged antigen
T4 construct: also called Human 4-1BB protein antigen (histidine-labeled); human 4-1BB protein and his tag (Acrobiosystem, #41B-H5227); not shown: histidine tag
Experimental: as §1

T4 sequence (Q07011 24-186): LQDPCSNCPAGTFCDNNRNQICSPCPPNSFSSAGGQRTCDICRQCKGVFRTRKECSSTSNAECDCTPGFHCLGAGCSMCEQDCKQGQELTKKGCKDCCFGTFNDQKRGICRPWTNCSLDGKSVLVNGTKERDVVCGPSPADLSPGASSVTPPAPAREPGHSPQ
T1 sequence (Q07011 24-255): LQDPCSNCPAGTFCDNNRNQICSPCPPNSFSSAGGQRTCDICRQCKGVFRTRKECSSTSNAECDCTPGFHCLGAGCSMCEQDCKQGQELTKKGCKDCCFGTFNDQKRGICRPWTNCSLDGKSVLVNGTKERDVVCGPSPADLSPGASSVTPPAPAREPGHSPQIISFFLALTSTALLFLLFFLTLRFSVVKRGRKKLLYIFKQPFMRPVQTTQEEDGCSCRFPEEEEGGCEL
T2 sequence (Q9NZQ7 19-290): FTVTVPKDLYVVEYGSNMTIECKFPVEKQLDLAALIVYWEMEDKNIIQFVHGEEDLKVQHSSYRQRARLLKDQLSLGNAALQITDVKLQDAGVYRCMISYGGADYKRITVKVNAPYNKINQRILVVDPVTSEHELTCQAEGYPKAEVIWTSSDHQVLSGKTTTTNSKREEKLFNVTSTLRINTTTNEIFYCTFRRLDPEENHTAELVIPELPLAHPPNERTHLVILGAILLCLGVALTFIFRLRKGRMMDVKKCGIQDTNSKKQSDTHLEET

B3: PR001768 (antibody, human IgG1, V domains shown)
VH: EVQLLESGGGLVQPGGSLRLSCAASGFTFSNYAMTWVRQAPGKGLEWVSSISGSGDSTYYADSVKGRFTISRDNSKNTLYLQMNSLRAEDTAVYYCAKEGTGTTSDYYYNVDVWGQGTTVTVSS
notes: HCAb, heavy chain only, human IgG1 Fc; also called 1016P0039B9
binding result [1]: binds

B4: PR001781 (antibody, human IgG1, V domains shown)
VH: EVQLLESGGGLVQLGGSLRLSCAASGFTFSSYAMTWVRQAPEKGLEWVSSISGSGGNTYYADSVKGRFTISRDNSKNTLYLQMNSLRAEDTAVYYCAKERTGTTGDYYYNVDVWGQGTTVTVSS
notes: HCAb, heavy chain only, human IgG1 Fc; also called 1016P007F3
binding result [1]: binds

B5: PR001834 (antibody, human IgG1, V domains shown)
VH: EVQLLESGGGLVQPGGSLRLSCAASGFTFSGYAMTWVRQPPEKGLEWVSSISGSGNNTFYADSVKGRFTISRDNSKNTLYLQMNSLRAEDTAVYYCAKEGTTETDDYHYNMDVWGQGTTVTVSS
notes: HCAb, heavy chain only, human IgG1 Fc; also called 1016P0019C9
binding result [1]: binds

B6: PR001766 (antibody, human IgG1, V domains shown)
VH: EVQLLESGGGLVQPGGSLRLSCAASGFTFSSYAMSWGRQAPGKGLEWVSSISGSGGSTYYADSVKGRFTISRDNSKNTLYLQMNSLRAEDTAVYYCAKEKTGTTGDYYYDMDVWGQGTTVTVSS
notes: HCAb, heavy chain only, human IgG1 Fc; also called 1016P0034F10
binding result [1]: binds

B8: PR001842 (antibody, human IgG1, V domains shown)
VH: EVQLLESGGGLVQPGGSLRLSCAASGFTFSSYAMSWGRQAPGKGLEWVSAISGSGGSTYYADSVKGRFTISRDNSKNTLYLHMNSLRAEDTAVYYCAKEKVATTGDYYYDMDVWGQGTTVTVSS
notes: HCAb, heavy chain only, human IgG1 Fc; also called 1016P0045A3
binding result [1]: binds

B13: PR007289 (antibody, human IgG1, V domains shown)
VH: EVQLVESGGGLVKPGGSLRLSCAASGFTFSDYYMSWFRQAPGKGLEWVSYISSSGSTQDYADSVKGRFTISRDNAKNSLYLQMNSLRAEDTAVYYCAREREPVAGTLDFDNWGQGTPVTVSS
notes: HCAb, heavy chain only, human IgG1 Fc; also called R1016P145B11
binding result [1]: binds

B18: PR001831 (antibody, human IgG1, V domains shown)
VH: EVQLVESGGGVIQPGGSLRLSCEASGFTFSSYAMSWVRQAPEKGLEWVSSISGSGDSTYYADSVKGRFTISRDNSKNTLYLQMNSLRAEDTAGYHCAKEGSNGTDDYHYDIDVWGQGTSVTVSS
notes: HCAb, heavy chain only, human IgG1 Fc; also called 1016P0015C8
EC50 [1]: < 0.3 nM

B21: PR001830 (antibody, human IgG1, V domains shown)
VH: EVQLLESGGGLVQPGGSLRLSCTASGFTFSNYAMSWVRQAPEKGLEWVSSISGSGGSTFYADSVKGRFTISRDNSKNTLYLQMNSLRAEDTAVYFCAKEGSSETDDHYYNVDVWGQGTTVTVSS
notes: HCAb, heavy chain only, human IgG1 Fc; also called 1016P0014G8
EC50 [1]: < 0.3 nM
Kd [3]: 18.1 nM
Response [3]: 0.222
koff [3]: 0.00347 s⁻¹
kon [3]: 192000 M⁻¹ s⁻¹
Kd [4]: 24.9 nM
Response [4]: 0.307
koff [4]: 0.00664 s⁻¹
kon [4]: 266000 M⁻¹ s⁻¹

B23: PR001833 (antibody, human IgG1, V domains shown)
VH: EVQLLESGGGLVQPGGSLRLSCAASGFTFSSYAMSWVRQAPEKGLEWVSSISGSGGSTFYADSVKGRFTISRDNSKNTLYLQMNSLRAEDTAVYFCAKEGATETDDYHFNTDVWGQGTTVTVSS
notes: HCAb, heavy chain only, human IgG1 Fc; also called 1016P0016F8
EC50 [1]: < 0.3 nM
Kd [3]: 22.3 nM
Response [3]: 0.273
koff [3]: 0.00309 s⁻¹
kon [3]: 139000 M⁻¹ s⁻¹
Kd [4]: 23.4 nM
Response [4]: 0.311
koff [4]: 0.00506 s⁻¹
kon [4]: 216000 M⁻¹ s⁻¹

Now from value to binder:

EC50 [1]: < 0.3 nM
B1: PR001764 (antibody, human IgG1, V domains shown)
VH: EVQLLESGGGLVQPGGSLRLSCAASGFTFSSYAMSWVRQAPEKGLEWVSAISGGGGSTYYADSVKGRFTISRDNSKNTLYLQMDSLKAEDTAVYYCAKEGTTETDDYHYNMDVWGQGTTVTVSS
notes: HCAb, heavy chain only, human IgG1 Fc; also called 1016P0022E5

binding result [2]: binds
B2: PR003550 (bispecific antibody, human IgG1, kappa, L234A L235A)
light: DIQMTQSPSTLSASVGDRVTVTCRASQSIYIWLAWYQQKPGKAPNLLIYKASSLETGVPSRFSGSGSGTEFTLTISSLQPDDFATYYCQQYYGSSRTFGQGTKVEIKRTVAAPSVFIFPPSDEQLKSGTASVVCLLNNFYPREAKVQWKVDNALQSGNSQESVTEQDSKDSTYSLSSTLTLSKADYEKHKVYACEVTHQGLSSPVTKSFNRGEC
heavy: EVQLVESGGGLVQPGGSLRLSCAASGFTFSSYWMSWVRQAPGKGLEWVANIKQEGSEKYYVDSVKGRFTISRDNAKNSLYLQMNSLRAEDTAVYYCARDRAVAGAFDIWGQGTMVTVSSASTKGPSVFPLAPSSKSTSGGTAALGCLVKDYFPEPVTVSWNSGALTSGVHTFPAVLQSSGLYSLSSVVTVPSSSLGTQTYICNVNHKPSNTKVDKKVEPKSCDKTHTCPPCPAPEAAGGPSVFLFPPKPKDTLMISRTPEVTCVVVDVSHEDPEVKFNWYVDGVEVHNAKTKPREEQYNSTYRVVSVLTVLHQDWLNGKEYKCKVSNKALGAPIEKTISKAKGQPREPQVYTLPPSREEMTKNQVSLTCLVKGFYPSDIAVEWESNGQPENNYKTTPPVLDSDGSFFLYSKLTVDKSRWQQGNVFSCSVMHEALHNHYTQKSLSLSPGEPKSSDKTHTPPPPPRTEVQLVESGGGVVQPGGSLRLSCAASGFTFSNYAMTWVRQAPEKGLEWVSSISGSGVSTYYADSVKGRFTISRDNSKNTLYLQMTRLTAEDTAVYFCAKEGSSETDDHYYNVDVWGQGTTVTVSS
notes: PD-L1x4-1BB IgG-VH: PR000265 + VH of PR001760 at heavy-chain C-terminus

binding result [1]: binds
B7: PR007381 (antibody, human IgG1, V domains shown)
VH: EVQLLESGGGLVQPGGSLRLSCAASGFTFSNYAMSWVRQAPGKGLEWVSSIDASGGDTYYADSVKGRFTISRDNSKNTLYLQMNSLRAEDTAVYYCAKEGSHGTDDSHYDVDVWGQGTTVTVSS
notes: HCAb, variant of PR001838 (F37V, P40A, E42G, T43K, K46E, G53A), human IgG1

binding result [1]: binds
B9: PR001780 (antibody, human IgG1, V domains shown)
VH: EVQLLESGGGLIQPGGSLRLSCAASGFTFSSFAMTWVRQAPGKGLEWVSTISGSGDNTYYADSVKGRFTISRDNSKNTLYLQMNSLRAEDTAVYFCAKEDTAVASDYYYNIDVWGQGTTVTVSS
notes: HCAb, heavy chain only, human IgG1 Fc; also called 1016P0058D11

binding result [1]: binds
B10: PR001837 (antibody, human IgG1, V domains shown)
VH: EVQLLESGGGLVQPGGSLRLSCEASGFTFSSYAMSWVRQAPEKGLEWVSSISGSGGSTFYADSVKGRFTISRDNSKNTLYLQMNSLRAEDTAVYYCAKEGTTETDDYHYNMDVWGQGTTVTVSS
notes: HCAb, heavy chain only, human IgG1 Fc; also called 1016P0024B10

binding result [1]: binds
B11: PR001771 (antibody, human IgG1, V domains shown)
VH: EVQLLESGGGLVQPGGSLRLSCAASGFTFSNYAMTWVRQPPGKGLEWVSSISGSGGSTYYADSVKGRFTISRDNSKNTLYLQMNSLRAEDTAVYYCAKEGTGTTSDYYYNVDVWGQGTTVTVSS
notes: HCAb, heavy chain only, human IgG1 Fc; also called 1016P0042C5

binding result [1]: binds
B12: PR001776 (antibody, human IgG1, V domains shown)
VH: EVQLLESGGGLVQPGGSLRLSCAASGFTFSSYAMSWVRQAPEKGLEWVSAISSSGGSTYYADSVKGRFTISRDNSKNTLYLQMNSLRAEDTAVYYCAKDGVTTPSYYYYYDMDVWGQGTTVTVSS
notes: HCAb, heavy chain only, human IgG1 Fc; also called 1016P0049C7

binding result [1]: binds
B14: PR007288 (antibody, human IgG1, V domains shown)
VH: EVQLVESGGGLVKPGGSLRLSCAASGFTFSDYYMSWFRQAPGKGLEWVSYISGSGSIIDYADSVKGRFTISRDNAKNSLYLQMNSLRAEDTAVYYCSREREAVAGTLDFDYWGQGTLVTVSS
notes: HCAb, heavy chain only, human IgG1 Fc; also called R1016P144G12

binding result [1]: binds
B15: PR007290 (antibody, human IgG1, V domains shown)
VH: EVQLVESGGGVVQPGRSLRLSCAASGFTFSDYYMSWFRQAPGKGLEWVSYISSSGTTIDYADSVKGRFTISRDNAKNSLYLQMNSLRAEDTAVYYCAREREEVAGTLDFDYWGQGTPVTVSS
notes: HCAb, heavy chain only, human IgG1 Fc; also called R1016P145C05

binding result [1]: binds
B16: PR001774 (antibody, human IgG1, V domains shown)
VH: EVQLVESGGGLVQPGGSLRLSCAASGFTFSSFAMTWVRQAPEKGLEWVSTISGSGDTTYYADSVKGRFTISRDSSKNTLYLQMNSLRAEDSAVYFCAKEATAMASDYYYGVDVWGQGTTVTVSS
notes: HCAb, heavy chain only, human IgG1 Fc; also called 1016P0045F7

binding result [1]: binds
B17: PR001775 (antibody, human IgG1, V domains shown)
VH: EVQLLESGGGLVQSGGSLRLSCAASGFTFSSYAMSWVRQAPGKGLEWVSAISGSGGSTDYADSVKGRFTISRDNSTNTLYLQMNSLRAEDTAVYYCAKERAYDYSNYVDFDYWGQGTLVTVSS
notes: HCAb, heavy chain only, human IgG1 Fc; also called 1016P0046A9

EC50 [1]: < 0.3 nM
Kd [3]: 8.89 nM
Response [3]: 0.25
koff [3]: 0.00147 s⁻¹
kon [3]: 165000 M⁻¹ s⁻¹
Kd [4]: 13.5 nM
Response [4]: 0.294
koff [4]: 0.00322 s⁻¹
kon [4]: 239000 M⁻¹ s⁻¹
B19: PR001836 (antibody, human IgG1, V domains shown)
VH: EVQLLESGGGLVQPGGSLRLSCAASGFIFSNFAMTWVRQPPEKGLKWVSSINGSGFNTYYTDSVKGRFTISRDNSRNTLYLQMNRLTAEDTAVYFCAKEGSSETDDHYYNVDVWGQGTTVTVSS
notes: HCAb, heavy chain only, human IgG1 Fc; also called 1016P0020G4

binding result [1]: binds
B20: PR004469 (antibody, human IgG1, V domains shown)
VH: EVQLLESGGGLVQPGGSLRLSCAASGFTFSNYAMSWFRQPPETGLKWVSSIDASGGDTYYADSVKGRFTISRDNSKNTLYLQMNSLRAEDTAVYYCAKEGSHGTDDSHYDVDVWGQGTTVTVSS
notes: HCAb, PTM variant of PR001838 (G53A), human IgG1

binding result [1]: binds
B22: PR001763 (antibody, human IgG1, V domains shown)
VH: EVQLLESGGGLVQPGGSLRLSCTASGFTFSNYAMSWVRQAPEKGLEWVSSISGSGGSTFYADSVKGRFTISRDNSKNTLYLQMNRLTAEDTAVYYCAKEGSNGTDDYHYDIDVWGQGTTVTVSS
notes: HCAb, heavy chain only, human IgG1 Fc; also called 1016P0016E9
